Test results: PMC8677033

Molecular target: HIS-RBS1_1412 WT (UniProt Q8TEQ6 1297-1412)
Assay: EMSA

HIS-RBS1_1412 WT, sequence (Q8TEQ6 1297-1412): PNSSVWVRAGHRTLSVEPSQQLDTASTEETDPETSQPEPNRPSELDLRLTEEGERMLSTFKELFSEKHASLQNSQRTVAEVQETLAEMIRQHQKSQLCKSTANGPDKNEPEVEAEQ

UUUUU (ssRNA) [U(5)]: no binding.
